Data published in patent US20250011363A1, “OPTIMIZED SHORTENED PEPTIDE THAT BINDS TO ACETYLCHOLINE RECEPTOR, AND USE THEREOF” (SKINMED CO., LTD., priority 2021, published 2025).

B1: 5mer-43 (peptide)
peptide: KSFYR
B2: 5mer-343 (peptide)
peptide: KSFSR
B3: 5mer-338 (peptide)
peptide: RWILR
B4: 5mer-41 (peptide)
peptide: KVISK
B5: 5mer-42 (peptide)
peptide: RQRLR
B6: 5mer-31 (peptide)
peptide: RRLQR
B7: 5mer-39 (peptide)
peptide: KQVSR
B8: 5mer-342 (peptide)
peptide: KVYQR
B9: 5mer-329 (peptide)
peptide: RRFCR
B10: 5mer-40 (peptide)
peptide: KSVCR
B11: 5mer-330 (peptide)
peptide: RWQLR
B12: 5mer-32 (peptide)
peptide: RQLSR
B13: 5mer-328 (peptide)
peptide: RWVLK
B14: 5mer-336 (peptide)
peptide: KSVSR
B15: 5mer-37 (peptide)
peptide: RRLSR
B16: 5mer-29 (peptide)
peptide: KGFCR
B17: 5mer-340 (peptide)
peptide: KGYRR
B18: 5mer-339 (peptide)
peptide: KWVRK
B19: 5mer-341 (peptide)
peptide: RWYRR
B20: 5mer-30 (peptide)
peptide: KSQLR
B21: 5mer-332 (peptide)
peptide: RRYCR
B22: 5mer-33 (peptide)
peptide: RRISK
B23: 5mer-34 (peptide)
peptide: KRIRK
B24: 5mer-36 (peptide)
peptide: RRLQK
B25: 5mer-35 (peptide)
peptide: RWQYK
B26: 5mer-335 (peptide)
peptide: KSLTR
B27: 5mer-333 (peptide)
peptide: RVLQR
B28: 5mer-38 (peptide)
peptide: RGYCK
B29: 5mer-334 (peptide)
peptide: KRFYK
B30: 5mer-337 (peptide)
peptide: KGRSR
B31: 5mer-331 (peptide)
peptide: RGIQR

These binders were tested against acetylcholine receptor (assay: SPR, AchR on chip, peptide 10 uM).
B1 gave a Binding affinity (RU) of 53 RU.
In the case of B2, the Binding affinity (RU) is reported as 60 RU.
With B3 the Binding affinity (RU) was 61 RU.
B4 showed a Binding affinity (RU) of 82 RU.
B5 was tested, and the Binding affinity (RU) was 83 RU.
B6 showed a Binding affinity (RU) of 65 RU.
With B7 the Binding affinity (RU) was 67 RU.
B8 showed a Binding affinity (RU) of 69 RU.
For B9, the Binding affinity (RU) was 79 RU.
For B10, the Binding affinity (RU) was 67 RU.
For B11, the Binding affinity (RU) was 86 RU.
Work on B12 yielded a Binding affinity (RU) of 75 RU.
Work on B13 yielded a Binding affinity (RU) of 61 RU.
Work on B14 yielded a Binding affinity (RU) of 83 RU.
In the case of B15, the Binding affinity (RU) is reported as 72 RU.
In the case of B16, the Binding affinity (RU) is reported as 63 RU.
B17 showed a Binding affinity (RU) of 51 RU.
Work on B18 yielded a Binding affinity (RU) of 87 RU.
In the case of B19, the Binding affinity (RU) is reported as 52 RU.
B20 was tested, and the Binding affinity (RU) was 70 RU.
B21 gave a Binding affinity (RU) of 85 RU.
Binder B22 has a Binding affinity (RU) of 59 RU.
Work on B23 yielded a Binding affinity (RU) of 82 RU.
Work on B24 yielded a Binding affinity (RU) of 60 RU.
B25 was tested, and the Binding affinity (RU) was 80 RU.
B26 showed a Binding affinity (RU) of 56 RU.
Binder B27 has a Binding affinity (RU) of 67 RU.
With B28 the Binding affinity (RU) was 53 RU.
Work on B29 yielded a Binding affinity (RU) of 64 RU.
In the case of B30, the Binding affinity (RU) is reported as 67 RU.
B31 showed a Binding affinity (RU) of 79 RU.
